Results on two molecules are retold here after patent US20170096490A1 (published 2017).

The target in assay [1] is human RANK-L (Receptor Activator of Nuclear factor Kappa B Ligand), soluble (human) (UniProt O14788). The assay can be described thus: cell-based or functional assay.
Assay [2] addresses T1, human RANK-L (Receptor Activator of Nuclear factor Kappa B Ligand), soluble (human, UniProt O14788 140-317, limits assumed).
T1 construct: Used plain, biotinylated or ALEXA647-labeled; also called hRANK-L; sRANK-L
T1 sequence (looked up): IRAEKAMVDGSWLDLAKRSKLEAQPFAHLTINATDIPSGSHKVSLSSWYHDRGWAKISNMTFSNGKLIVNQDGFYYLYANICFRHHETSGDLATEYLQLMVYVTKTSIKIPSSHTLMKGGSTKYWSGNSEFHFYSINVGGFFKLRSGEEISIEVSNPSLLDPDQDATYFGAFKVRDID
The assay can be described thus: AlphaScreen, biotinylated RANK-L vs RANK-huFc beads.

The target of assay [3] is T1, human RANK-L (Receptor Activator of …). Put plainly: SPR BIACORE 3000, RANK-L on CM5 chip, 100 nM Nanobody. Background: Surface plasmon resonance follows binding to a sensor surface in real time, without labels.
Assay [4] has the same target. The assay can be described thus: SPR BIACORE 3000, RANK-L on CM5 chip, 100 nM Nanobody; indicative, one concentration.

In assay [1], “osteoprotegerin (from UniProt O00300 22-401) (receptor)” came in with an IC50, NF-kappaB reporter gene assay (luciferase, HEK293T, 300 ng/ml human RANK-L) of 6.03 nM.

B1: RANKL18hum3 (VHH)
VHH: EVQLVESGGGLVQPGGSLRLSCAASGRTFSRSAMGWFRQAPGKGREFVGFITGSGGTTYYADSVKGRFTISRDNAQNPVYLQMNSLRPEDTAVYYCGVYRRTYISSTYSESSEYDYWGQGTLVTVSS
B1: the IC50 (in general, the concentration needed to halve the response being measured) in assay [2] was found to be 0.274 nM. For the same molecule, the koff (commonly a measure of how fast the partners let go of each other) in assay [3] turned out to be 0.000127 s⁻¹. In addition, in assay [4], binding was characterised by a dissociation constant (Kd) of 0.288 nM and the kon (usually the rate constant with which the complex forms) was found to be 441000 M⁻¹ s⁻¹.
